Test results reported in publication PMC13021935.

Molecular target: CENP-A nucleosomes reconstituted on an 18 x 601 DNA array (xlCENP-A-myc/H4 tetramer with H2A/H2B dimers) (X. laevis | not stated) (UniProt Q569M3)

centromere localisation (immunofluorescence, FLAG) on sperm nuclei in interphase egg extract immunodepleted of endogenous CENP-C and M18BP1, relative to WT FLAG-M18BP1-L (% of WT levels): 30
Substance: Xenopus laevis M18BP1-L S760D (xlM18BP1-L^S760D-3xFLAG) (natural protein)
